Entries after “also recorded” stand apart in the source; their conditions may differ. Where no end group is shown, it is not given here.
What was measured:
MPO [1] = biological target: T1, MPO (Homo sapiens, UniProt P05164); experiment: Peptide screening, direct binding ELISA of 87 overlapping Cp peptides; conditions: combined data of 87 ELISA plates; 24-mers not HPLC-purified; figure 2A
MPO [2] = biological target: T1, MPO; experiment: Direct binding ELISA of HPLC-purified peptides; conditions: 24-mer P18, 21-mers of P18, P48, P76, negative controls P28 and P61, mean ± SEM, n = 4 wells, p<0.05, figure 3B
Cp = conditions: oxidation of ferrous ions and removal of peroxides; ref [14]; cited from earlier work
MPO [3] = conditions: ref [14]; cited from earlier work
MPO [4] = biological target: T1, MPO; experiment: Surface plasmon resonance, immobilized MPO; conditions: read-out: binding affinity (Kd); MPO immobilized on CM5 chip via -NH2; Cp 1 to 200 nM; Biacore3000, 30 μl/min; Biaevaluation software

T1 sequence (P05164 279-745 limits assumed): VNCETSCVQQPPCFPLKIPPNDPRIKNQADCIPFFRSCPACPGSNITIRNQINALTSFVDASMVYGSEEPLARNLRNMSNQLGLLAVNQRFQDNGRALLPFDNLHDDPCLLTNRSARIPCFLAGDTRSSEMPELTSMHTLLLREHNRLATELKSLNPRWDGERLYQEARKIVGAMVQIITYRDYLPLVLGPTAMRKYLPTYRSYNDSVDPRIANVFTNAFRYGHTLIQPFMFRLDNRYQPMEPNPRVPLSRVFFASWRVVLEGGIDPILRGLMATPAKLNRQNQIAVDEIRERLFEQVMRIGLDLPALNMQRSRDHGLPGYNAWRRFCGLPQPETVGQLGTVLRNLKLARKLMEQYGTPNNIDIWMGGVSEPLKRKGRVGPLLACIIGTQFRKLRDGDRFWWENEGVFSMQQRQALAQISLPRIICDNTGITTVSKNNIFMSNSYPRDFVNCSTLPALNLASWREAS
T1 sequence (P05164 165-273 limits assumed): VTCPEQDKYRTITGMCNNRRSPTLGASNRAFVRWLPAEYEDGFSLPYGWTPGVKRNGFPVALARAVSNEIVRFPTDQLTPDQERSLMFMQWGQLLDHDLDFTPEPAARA

| Molecule | peptide-MPO to Cp-MPO absorbance ratio (MPO [1]) | binding of MPO to HPLC-purified surface-adsorbed peptide (MPO [2]) | effect of MPO binding on antioxidant activities of Cp (Cp) | binding to and inhibition of myeloperoxidase (MPO [3]) | Kd (MPO [4]) [nM] |
| --- | --- | --- | --- | --- | --- |
| VVDENFSWYLEDNIKTYCSEPEKV [P18] | two major peaks | bound more MPO than its shorter, 21-mer version; also recorded: bound more MPO than P76 |  |  |  |
| Cp: Purified human Cp (Vital Products), copper-containing ferroxidase (protein) KEKHYYIGIIETTWDYASDHGEKKLISVDTEHSNIYLQNGPDRIGRLYKKALYLQYTDETFRTTIEKPVWLGFLGPIIKAETGDKVYVHLKNLASRPYTFHSHGITYYKEHEGAIYPDNTTDFQRADDKVYPGEQYTYMLLATEEQSPGEGDGNCVTRIYHSHIDAPKDIASGLIGPLIICKKDSLDKEKEKHIDREFVVMFSVVDENFSWYLEDNIKTYCSEPEKVDKDNEDFQESNRMYSVNGYTFGSLPGLSMCAEDRVKWYLFGMGNEVDVHAAFFHGQALTNKNYRIDTINLFPATLFDAYMVAQNPGEWMLSCQNLNHLKAGLQAFFQVQECNKSSSKDNIRGKHVRHYYIAAEEIIWNYAPSGIDIFTKENLTAPGSDSAVFFEQGTTRIGGSYKKLVYREYTDASFTNRKERGPEEEHLGILGPVIWAEVGDTIRVTFHNKGAYPLSIEPIGVRFNKNNEGTYYSPNYNPQSRSVPPSASHVAPTETFTYEWTVPKEVGPTNADPVCLAKMYYSAVEPTKDIFTGLIGPMKICKKGSLHANGRQKDVDKEFYLFPTVFDENESLLLEDNIRMFTTAPDQVDKEDEDFQESNKMHSMNGFMYGNQPGLTMCKGDSVVWYLFSAGNEADVHGIYFSGNTYLWRGERRDTANLFPQTSLTLHMWPDTEGTFNVECLTTDHYTGGMKQKYTVNQCRRQSEDSTFYLGERTYYIAAVEVEWDYSPQREWEKELHHLQEQNVSNAFLDKGEFYIGSKYKKVVYRQYTDSTFRVPVERKAEEEHLGILGPQLHADVGDKVKIIFKNMATRPYSIHAHGVQTESSTVTPTLPGETLTYVWKIPERSGAGTEDSACIPWAYYSTVDQVKDLYSGLIGPLIVCRRPYLKVFNPRRKLEFALLFLVFDENESWYLDDNIKTYSDHPEKVNKDDEEFIESNKMHAINGRMFGNLQGLTMHVGDEVNWYLMGMGNEIDLHTVHFHGHSFQYKHRGVYSSDVFDIFPGTYQTLEMFPRTPGIWLLHCHVTDHIHAGMETTYTVLQNEDTKSG |  |  | does not inhibit important antioxidant activities of Cp | bind and inhibit myeloperoxidase (MPO) | 30 |
